Experimental data as given in patent publication US20110190200A1 (INDIANA UNIVERSITY RESEARCH AND TECHNOLOGY, published 2011).
Values belong to the binder of their own block, whether it stands above or below them. Numbered stars: 1 amine (or outer) side, 2 acyl side, 3 side chain; on linkers, the order of the positions; unused ones are H or OH. Square brackets hold non-standard residues; d marks the D form. Side chains are listed from the residue outwards. Ends that are not written are not given here. * marks the point of attachment. γGlu = O=C(O)[C@H](CCC(=O)[*:2])N[*:1]; Palmitoyl = CCCCCCCCCCCCCCCC(=O)*; Myristoyl = CCCCCCCCCCCCCC(=O)*; Aib = CC(C)(N)C(=O)O

Columns and labels:
Experiment in all cases: cell-based or functional assay
GLP-1 receptor [1] = target: T1, GLP-1 receptor (UniProt P43220 24-463, limits assumed)
glucagon receptor [2] = target: T2, glucagon receptor (human, UniProt P47871 26-477)
GLP-1 receptor [3] = target: T1, GLP-1 receptor; remark: listed apart in the source
glucagon receptor [4] = target: T2, glucagon receptor; remark: listed apart in the source
GLP-1 receptor [5] = target: T1, GLP-1 receptor; remark: listed apart in the source
glucagon receptor [6] = target: T2, glucagon receptor; remark: listed apart in the source
GLP-1 receptor [7] = target: T1, GLP-1 receptor; remark: listed apart in the source
glucagon receptor [8] = target: T2, glucagon receptor; remark: listed apart in the source
glucagon receptor [9] = target: T2, glucagon receptor; remark: listed apart in the source
glucagon receptor [10] = target: T2, glucagon receptor; remark: listed apart in the source

T2 sequence (P47871 26-477): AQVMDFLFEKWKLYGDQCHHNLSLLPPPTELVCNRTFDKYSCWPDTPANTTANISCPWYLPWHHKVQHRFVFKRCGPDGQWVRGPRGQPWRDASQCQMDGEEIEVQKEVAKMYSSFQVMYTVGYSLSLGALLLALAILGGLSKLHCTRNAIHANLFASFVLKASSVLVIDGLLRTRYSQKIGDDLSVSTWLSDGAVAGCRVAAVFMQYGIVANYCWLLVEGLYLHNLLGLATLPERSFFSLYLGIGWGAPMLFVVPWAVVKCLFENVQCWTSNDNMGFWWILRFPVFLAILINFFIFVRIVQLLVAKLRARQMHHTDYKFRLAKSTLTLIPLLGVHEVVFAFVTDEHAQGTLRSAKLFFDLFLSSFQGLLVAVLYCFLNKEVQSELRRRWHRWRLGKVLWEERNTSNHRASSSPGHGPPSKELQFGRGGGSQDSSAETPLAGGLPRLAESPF

cAMP Induction, EC50 (GLP-1 receptor [1]): 0.41 nM
cAMP Induction, EC50 (glucagon receptor [2]): 0.81 nM
B1: Glucagon R12 K29 (peptide)
peptide: HSQGTFTSDYSRYLDSRRAQDFVQWLMNK

EC50 at GLP-1 Receptor (GLP-1 receptor [3]): 0.008 nM
EC50 at Glucagon Receptor (glucagon receptor [4]): 0.006 nM
B2: Peptide 80** (Table 11) (peptide)
peptide: H[Aib]QGTFTSDK([γGlu-γGlu-Palmitoyl])SKYLD[Aib]RRAQDFVCWLMNT-NH2
modifications: N-terminus assumed
SMILES: CCCCCCCCCCCCCCCC(=O)N[C@@H](CCC(=O)N[C@@H](CCC(=O)NCCCC[C@H](NC(=O)[C@H](CC(=O)O)NC(=O)[C@H](CO)NC(=O)[C@@H](NC(=O)[C@H](Cc1ccccc1)NC(=O)[C@@H](NC(=O)CNC(=O)[C@H](CCC(N)=O)NC(=O)C(C)(C)NC(=O)[C@@H](N)Cc1c[nH]cn1)[C@@H](C)O)[C@@H](C)O)C(=O)N[C@@H](CO)C(=O)N[C@@H](CCCCN)C(=O)N[C@@H](Cc1ccc(O)cc1)C(=O)N[C@@H](CC(C)C)C(=O)N[C@@H](CC(=O)O)C(=O)NC(C)(C)C(=O)N[C@@H](CCCNC(=N)N)C(=O)N[C@@H](CCCNC(=N)N)C(=O)N[C@@H](C)C(=O)N[C@@H](CCC(N)=O)C(=O)N[C@@H](CC(=O)O)C(=O)N[C@@H](Cc1ccccc1)C(=O)N[C@H](C(=O)N[C@@H](CS)C(=O)N[C@@H](Cc1c[nH]c2ccccc12)C(=O)N[C@@H](CC(C)C)C(=O)N[C@@H](CCSC)C(=O)N[C@@H](CC(N)=O)C(=O)N[C@H](C(N)=O)[C@@H](C)O)C(C)C)C(=O)O)C(=O)O

EC50 at GLP-1 Receptor (GLP-1 receptor [3]): 0.018 nM
B3: Peptide 81** (Table 11) (peptide)
peptide: H[Aib]QGTFTSDK([Ala-Ala-Myristoyl])SKYLD[Aib]RRAQDFVCWLMNT-NH2
modifications: N-terminus assumed
SMILES: CCCCCCCCCCCCCC(=O)N[C@@H](C)C(=O)N[C@@H](C)C(=O)NCCCC[C@H](NC(=O)[C@H](CC(=O)O)NC(=O)[C@H](CO)NC(=O)[C@@H](NC(=O)[C@H](Cc1ccccc1)NC(=O)[C@@H](NC(=O)CNC(=O)[C@H](CCC(N)=O)NC(=O)C(C)(C)NC(=O)[C@@H](N)Cc1c[nH]cn1)[C@@H](C)O)[C@@H](C)O)C(=O)N[C@@H](CO)C(=O)N[C@@H](CCCCN)C(=O)N[C@@H](Cc1ccc(O)cc1)C(=O)N[C@@H](CC(C)C)C(=O)N[C@@H](CC(=O)O)C(=O)NC(C)(C)C(=O)N[C@@H](CCCNC(=N)N)C(=O)N[C@@H](CCCNC(=N)N)C(=O)N[C@@H](C)C(=O)N[C@@H](CCC(N)=O)C(=O)N[C@@H](CC(=O)O)C(=O)N[C@@H](Cc1ccccc1)C(=O)N[C@H](C(=O)N[C@@H](CS)C(=O)N[C@@H](Cc1c[nH]c2ccccc12)C(=O)N[C@@H](CC(C)C)C(=O)N[C@@H](CCSC)C(=O)N[C@@H](CC(N)=O)C(=O)N[C@H](C(N)=O)[C@@H](C)O)C(C)C

EC50 at GLP-1 Receptor (GLP-1 receptor [3]): 0.008 nM
EC50 at Glucagon Receptor (glucagon receptor [4]): 0.009 nM
B4: Peptide 78** (Table 11) (peptide)
peptide: H[Aib]QGTFTSDK([γGlu-γGlu-Myristoyl])SKYLD[Aib]RRAQDFVCWLMNT-NH2
modifications: N-terminus assumed
SMILES: CCCCCCCCCCCCCC(=O)N[C@@H](CCC(=O)N[C@@H](CCC(=O)NCCCC[C@H](NC(=O)[C@H](CC(=O)O)NC(=O)[C@H](CO)NC(=O)[C@@H](NC(=O)[C@H](Cc1ccccc1)NC(=O)[C@@H](NC(=O)CNC(=O)[C@H](CCC(N)=O)NC(=O)C(C)(C)NC(=O)[C@@H](N)Cc1c[nH]cn1)[C@@H](C)O)[C@@H](C)O)C(=O)N[C@@H](CO)C(=O)N[C@@H](CCCCN)C(=O)N[C@@H](Cc1ccc(O)cc1)C(=O)N[C@@H](CC(C)C)C(=O)N[C@@H](CC(=O)O)C(=O)NC(C)(C)C(=O)N[C@@H](CCCNC(=N)N)C(=O)N[C@@H](CCCNC(=N)N)C(=O)N[C@@H](C)C(=O)N[C@@H](CCC(N)=O)C(=O)N[C@@H](CC(=O)O)C(=O)N[C@@H](Cc1ccccc1)C(=O)N[C@H](C(=O)N[C@@H](CS)C(=O)N[C@@H](Cc1c[nH]c2ccccc12)C(=O)N[C@@H](CC(C)C)C(=O)N[C@@H](CCSC)C(=O)N[C@@H](CC(N)=O)C(=O)N[C@H](C(N)=O)[C@@H](C)O)C(C)C)C(=O)O)C(=O)O

GLP-1 Receptor, Average (assay of Example 13) (GLP-1 receptor [5]): 13.6 nM
Glucagon Receptor, Average (assay of Example 13) (glucagon receptor [6]): 0.26 nM
B5: AIB 16, 20 Glucagon (peptide)
peptide: HSQGTFTSDYSKYLD[Aib]RRA[Aib]DFVQWLMNT

EC50 at the GLP-1 receptor (GLP-1 receptor [7]): 0.84 nM
EC50 at the glucagon receptor (glucagon receptor [8]): 3.53 nM
B6: Peptide dS2E16K20K30-C14 Gluc Amide (peptide)
peptide: HXQGTFTSDYSKYLDERRAKDFVQWLMNTK
modifications: d-Ser at position 2; Lys at position 30 acylated with a C14 fatty acyl group; C-terminal amide

GLP-1 Receptor, Average (assay of Example 13) (GLP-1 receptor [5]): 12.2 nM
B7: AIB 16, 20, 24 Glucagon (peptide)
peptide: HSQGTFTSDYSKYLD[Aib]RRA[Aib]DFV[Aib]WLMNT

EC50 at the GLP-1 receptor (GLP-1 receptor [7]): 0.041 nM
EC50 at the glucagon receptor (glucagon receptor [8]): 0.076 nM
B8: Peptide dS2K10(C16)E16K20-Gluc Amide (peptide)
peptide: HXQGTFTSDKSKYLDERRAKDFVQWLMNT
modifications: d-Ser at position 2; Lys at position 10 acylated with a C16 fatty acyl group; C-terminal amide

Observed EC50s (nM) in Cells Overexpressing the Glucagon Receptor, Test 2 (glucagon receptor [9]): 0.04 nM
B9: glucagon analog E30 (peptide)
peptide: HSQGTFTSDYSKYLDSRRAQDFVQWLMNTE

EC50, in vitro activity at the glucagon receptor (glucagon receptor [10]): 0.06 nM
Observed EC50s (nM) in Cells Overexpressing the Glucagon Receptor, Test 3 (glucagon receptor [9]): 0.03 nM
B10: D28/E29 Glucagon (peptide)
peptide: HSQGTFTSDYSKYLDSRRAQDFVQWLMDE

EC50 at GLP-1 Receptor (GLP-1 receptor [3]): 0.063 nM
EC50 at Glucagon Receptor (glucagon receptor [4]): 0.144 nM
B11: Peptide 77** (Table 11) (peptide)
peptide: H[Aib]QGTFTSDK(Myristoyl)SKYLD[Aib]RRAQDFVCWLMNT-NH2
modifications: N-terminus assumed
SMILES: CCCCCCCCCCCCCC(=O)NCCCC[C@H](NC(=O)[C@H](CC(=O)O)NC(=O)[C@H](CO)NC(=O)[C@@H](NC(=O)[C@H](Cc1ccccc1)NC(=O)[C@@H](NC(=O)CNC(=O)[C@H](CCC(N)=O)NC(=O)C(C)(C)NC(=O)[C@@H](N)Cc1c[nH]cn1)[C@@H](C)O)[C@@H](C)O)C(=O)N[C@@H](CO)C(=O)N[C@@H](CCCCN)C(=O)N[C@@H](Cc1ccc(O)cc1)C(=O)N[C@@H](CC(C)C)C(=O)N[C@@H](CC(=O)O)C(=O)NC(C)(C)C(=O)N[C@@H](CCCNC(=N)N)C(=O)N[C@@H](CCCNC(=N)N)C(=O)N[C@@H](C)C(=O)N[C@@H](CCC(N)=O)C(=O)N[C@@H](CC(=O)O)C(=O)N[C@@H](Cc1ccccc1)C(=O)N[C@H](C(=O)N[C@@H](CS)C(=O)N[C@@H](Cc1c[nH]c2ccccc12)C(=O)N[C@@H](CC(C)C)C(=O)N[C@@H](CCSC)C(=O)N[C@@H](CC(N)=O)C(=O)N[C@H](C(N)=O)[C@@H](C)O)C(C)C

Observed EC50s (nM) in Cells Overexpressing the Glucagon Receptor, Test 3 (glucagon receptor [9]): 0.05 nM
B12: glucagon analog D28, E30 (peptide)
peptide: HSQGTFTSDYSKYLDSRRAQDFVQWLMDTE

EC50 at the GLP-1 receptor (GLP-1 receptor [7]): 0.041 nM
EC50 at the glucagon receptor (glucagon receptor [8]): 0.155 nM
B13: Peptide dS2K10(C14)E16K20-Gluc Amide (peptide)
peptide: HXQGTFTSDKSKYLDERRAKDFVQWLMNT
modifications: d-Ser at position 2; Lys at position 10 acylated with a C14 fatty acyl group; C-terminal amide

Observed EC50s (nM) in Cells Overexpressing the Glucagon Receptor, Test 2 (glucagon receptor [9]): 0.12 nM
B14: glucagon analog K30, K31 (peptide)
peptide: HSQGTFTSDYSKYLDSRRAQDFVQWLMNTKK

EC50, in vitro activity at the glucagon receptor (glucagon receptor [10]): 0.08 nM
B15: AIB 16/D28/E29 Glucagon (peptide)
peptide: HSQGTFTSDYSKYLD[Aib]RRAQDFVQWLMDE

EC50 at the GLP-1 receptor (GLP-1 receptor [7]): 3.05 nM
EC50 at the glucagon receptor (glucagon receptor [8]): 4.89 nM
B16: Peptide dS2E16K20K30-C16 Gluc Amide (peptide)
peptide: HXQGTFTSDYSKYLDERRAKDFVQWLMNTK
modifications: d-Ser at position 2; Lys at position 30 acylated with a C16 fatty acyl group; C-terminal amide

Observed EC50s (nM) in Cells Overexpressing the Glucagon Receptor, Test 3 (glucagon receptor [9]): 0.15 nM
B17: glucagon analog D28, E15 (peptide)
peptide: HSQGTFTSDYSKYLESRRAQDFVQWLMDT

EC50 at GLP-1 Receptor (GLP-1 receptor [3]): 0.008 nM
EC50 at Glucagon Receptor (glucagon receptor [4]): 0.01 nM
B18: Peptide 79** (Table 11) (peptide)
peptide: H[Aib]QGTFTSDK([Ala-Ala-Palmitoyl])SKYLD[Aib]RRAQDFVCWLMNT-NH2
modifications: N-terminus assumed
SMILES: CCCCCCCCCCCCCCCC(=O)N[C@@H](C)C(=O)N[C@@H](C)C(=O)NCCCC[C@H](NC(=O)[C@H](CC(=O)O)NC(=O)[C@H](CO)NC(=O)[C@@H](NC(=O)[C@H](Cc1ccccc1)NC(=O)[C@@H](NC(=O)CNC(=O)[C@H](CCC(N)=O)NC(=O)C(C)(C)NC(=O)[C@@H](N)Cc1c[nH]cn1)[C@@H](C)O)[C@@H](C)O)C(=O)N[C@@H](CO)C(=O)N[C@@H](CCCCN)C(=O)N[C@@H](Cc1ccc(O)cc1)C(=O)N[C@@H](CC(C)C)C(=O)N[C@@H](CC(=O)O)C(=O)NC(C)(C)C(=O)N[C@@H](CCCNC(=N)N)C(=O)N[C@@H](CCCNC(=N)N)C(=O)N[C@@H](C)C(=O)N[C@@H](CCC(N)=O)C(=O)N[C@@H](CC(=O)O)C(=O)N[C@@H](Cc1ccccc1)C(=O)N[C@H](C(=O)N[C@@H](CS)C(=O)N[C@@H](Cc1c[nH]c2ccccc12)C(=O)N[C@@H](CC(C)C)C(=O)N[C@@H](CCSC)C(=O)N[C@@H](CC(N)=O)C(=O)N[C@H](C(N)=O)[C@@H](C)O)C(C)C
